System: human multipotent progenitor cells (MLPCs) from umbilical cord
Conditions: 3D environment; presence or absence in medium
Experimental: MLPCs were seeded on DETA-coated glass coverslips (18 mm) at a density of 4×10^3 cells/cm^2 in growth medium. After 3 days, at about 60% confluency, cells were incubated for 24 hours in pre-induction medium, consisting of DMEM, 15% FBS. FGF-2, EGF (20 ng/ml each, R & D Systems, Minneapolis, Minn.) and PDGF-AA (10 ng/ml, Chemicon International, Temecula, Calif.). To initiate differentiation, the pre-induction medium was removed, the cells were washed 2× with Hanks' balanced salts solution (Gibco BRL) and transferred to serum-free differentiation medium.
Construction of 3D Environment MLPCs were plated on DETA-coated glass coverslips (18 mm) in growth medium. At about 60% confluence, growth medium was replaced with pre-induction medium. […]
Phase-contrast images were taken with a commercial Nikon Coolpix 990 camera using the Zeiss Axiovert S100 microscope. Pictures were analyzed using Scion Image Software (Scion Corp., Frederick, Md.).
The morphological and immunocytochemical quantification was performed on undifferentiated stem cells or cells during various differentiation stages. […] All the marker-positive cells were counted, as well as the total number of cells in these views. At least three coverslips in each group were quantified and data were expressed as average±standard deviation (SD). Statistical differences between different experimental groups were analyzed by Student's t-test.

B1: EGF: growth factor in pre-induction and differentiation medium (protein, UniProt P01133 23-1207, looked up)
Pro-epidermal growth factor: PQHWSCPEGTLAGNGNSTCVGPAPFLIFSHGNSIFRIDTEGTNYEQLVVDAGVSVIMDFHYNEKRIYWVDLERQLLQRVFLNGSRQERVCNIEKNVSGMAINWINEEVIWSNQQEGIITVTDMKGNNSHILLSALKYPANVAVDPVERFIFWSSEVAGSLYRADLDGVGVKALLETSEKITAVSLDVLDKRLFWIQYNREGSNSLICSCDYDGGSVHISKHPTQHNLFAMSLFGDRIFYSTWKMKTIWIANKHTGKDMVRINLHSSFVPLGELKVVHPLAQPKAEDDTWEPEQKLCKLRKGNCSSTVCGQDLQSHLCMCAEGYALSRDRKYCEDVNECAFWNHGCTLGCKNTPGSYYCTCPVGFVLLPDGKRCHQLVSCPRNVSECSHDCVLTSEGPLCFCPEGSVLERDGKTCSGCSSPDNGGCSQLCVPLSPVSWECDCFPGYDLQLDEKSCAASGPQPFLLFANSQDIRHMHFDGTDYGTLLSQQMGMVYALDHDPVENKIYFAHTALKWIERANMDGSQRERLIEEGVDVPEGLAVDWIGRRFYWTDRGKSLIGRSDLNGKRSKIITKENISQPRGIAVHPMAKRLFWTDTGINPRIESSSLQGLGRLVIASSDLIWPSGITIDFLTDKLYWCDAKQSVIEMANLDGSKRRRLTQNDVGHPFAVAVFEDYVWFSDWAMPSVMRVNKRTGKDRVRLQGSMLKPSSLVVVHPLAKPGADPCLYQNGGCEHICKKRLGTAWCSCREGFMKASDGKTCLALDGHQLLAGGEVDLKNQVTPLDILSKTRVSEDNITESQHMLVAEIMVSDQDDCAPVGCSMYARCISEGEDATCQCLKGFAGDGKLCSDIDECEMGVPVCPPASSKCINTEGGYVCRCSEGYQGDGIHCLDIDECQLGEHSCGENASCTNTEGGYTCMCAGRLSEPGLICPDSTPPPHLREDDHHYSVRNSDSECPLSHDGYCLHDGVCMYIEALDKYACNCVVGYIGERCQYRDLKWWELRHAGHGQQQKVIVVAVCVVVLVMLLLLSLWGAHYYRTQKLLSKNPKNPYEESSRDVRSRRPADTEDGMSSCPQPWFVVIKEHQDLKNGGQPVAGEDGQAADGSMQPTSWRQEPQLCGMGTEQGCWIPVSSDKGSCPQVMERSFHMPSYGTQTLEGGVEKPHSLLSANPLWQQRALDPPHQMELTQ
modifications: Pro-epidermal growth factor
need of the growth factor for process formation: not essential
